Experimental data taken from the domain aggregation screens of Martell et al. (2025).

Assay: soluble fraction after stress (log2 fold change); higher = more stays soluble; pooled small domains, quantitative proteomics
Conditions: stress: 75 degC
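Also: 20 min heating vs room temperature control held 20 min.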

Row | Sequence | soluble fraction (log2)
1 | HMGQAAHYEGVKGDGESDTDVISRVLTAAGAEAQKDDIFVVKELIAGGKYSYTAYVYDGSVWAAM | -0.529
2 | HMGQAEEVRYSTFLDEVRNGRIEQVVLQGEHIIGTRKDKTVFSVFNPETDYTALIGTLSKSGVTIEGRP | 0.283
3 | HMGQARQSAIRELGNDPTSGKKITVRSGRYGPYVTDGEVNASLRKGDDPQTIDLDRAIELLAARREKLG | -0.148
4 | HMGQDGFIGLEAAKKLVLQKLGLTSAEFIKAELDAEDRKYELELIVDGIEYDFDIDAYSGAFLKQEQETV | -0.519
5 | HMGQEEKDIFLKLINISGIGPKLALNILSGIEASELEEAVRNTNVTRLSMVPGIGQKTALRIIMELSDKLE | -0.298
6 | HMGQELTMPDLKSMSRSNAEEKLKKMGLKLGAVFEENAKEPAGTVINQDPRSGSKITKGQTVDITVSLGEK | 0.265
7 | HMGQERAVPDVKGQSFDMAQGNISRAGLKAVVTDSVYDSYARPGTVVEQSPIPLAKIKRGGTVYLTLVA | -0.118
8 | HMGQGSAFVYYEVLPKQTEYSLTRKLGLGYADLLSLNPQLARGLQAGMVLKIPRDKAGNLEVKNDLILE | -0.643
9 | HMGQISLSVNAIPEKAEVILDGNSIGNTPIRKNTITPGSHMFEIEKKGYAPISYDIYVNPSKAINLDFFM | -0.974
10 | HMGQKDYKTRLQEYFAKQGLKVNYEDTSHGPDHNKNFSTDVFLDGKIIGSGIGKSKKSSQQSAAKDALNIL | 0.473
11 | HMGQLIGKEEAKQIALSRAGVAEGDISRYESELDTDDGKTKYEISFHVGRVEYDIEINAVTGAVEKFEMDN | 0.587
12 | HMGQTDTIIKTTTDLYYEMSTMSDDDKLVVAQTLRDVWMAVGRWSGKLSKKQREKVAEVKRVLGE | -0.866
13 | HMGQVAKPPLKELGADPVTGKPMVLKDGRFGPYVTDGEYNASLRKDDDIETIGVERAAELLQIRREKGP | -0.252
14 | HMGQVGIPFSDFLAEVENGQVREVVIKGNDISGTFNDNRGFSTYAPNDPNLVEKLTKRGVVINAQPTE | 0.077
15 | HMGQVSEAGELEVAADRVIAANPEAVTKYKSGNENILQFLVGQMMKETKGAANPQVAAEILRKKIV | 0.065
16 | HMGRELDLNQRVYDFIHDIADEVRTDEGTFSANQMMERFLFPGDLQSVPIGRLSGGERRRLYLLSVLMVKI | -0.0184
17 | HMGRFPSLTPVVIDALTAQYREHPGWTVQLHVDNLRVVLAANQTPLPSYPTIRRYLLAQGMRRQTRP | -0.396
18 | HMGRLNMRRIRDVLRLKFGQGLSERQVAASLGLSKTSVGTYLHRARQAGLTWPLPQGLDDDGLELLLFP | -1.69
19 | HMGRMTRKDRALATDLYGRIVGNVDDFHEGRIDYETFSERQRGLWTTLDAAGPEVKRAVLADIRERL | -0.563
20 | HMGRWQPSTSAKQHGESALLLERLLHLERLTVSEAFHVLTINHRLNLSLPEYRSLLAVVQLPK | -1.8
21 | HMGRYDWIEQIDDPVLAERLKHLTEDDLELLTRYVFEDATQKELASQYGIGQQSVSKRLKKLKSFLTK | -0.355
22 | HMGSATAPDLKGLTYEQAQTKAEDAGYNIEKGEDVYDNDVEKGKVASQDPEAGAEAKEGSVITVNISK | -0.0215
23 | HMGSFAADVGRMVRLGRAKRGISRRKLAADSGISERYLAQIEGGQGNPSVNVLKAIADAISVPVFELLPH | -1.74

Row | Sequence | soluble fraction (log2)
24 | HMGSFDDAPDQLRQSILQLLAEGPLPPSAITERLNISREDATEALQQLLDEQRIFAVNGMLQLQPG | -0.109
25 | HMGSFTDKQIKQAFGVLNDPRFKQGNYDGAVAVINKIAPGLADHPSVANALKRANEATQDIAQQTQA | 0.0868
26 | HMGSGQIRYITENTVRVVYGTSKENEFVFQDGKPYPKDTPYHIHYTRNLEEYFMSGVEHDKNSKIILKVD | -0.946
27 | HMGSGVNVTVNGKRMNLPLKDDHIIFVDIFNYIDFDLSKPKGSIVLKLNGRDAGYTDPIKDGDVIDIYWQ | -0.301
28 | HMGSIDYLVGSRLRQYRRLRGYSLIEFSAMLHRSKSAISKYERGEVSIDLRTLNEMARLLDIPLSGLLL | -4.56
29 | HMGSIEASFEEDVRRYLARKSMTTTEISKKMRQKRPDMSRDQLMTLLANAIKRIKPIKKKIKGTLYLSLE | -2.07
30 | HMGSIMIIVLKENAPQQAAEKLMKEIRAKGLQIDVSKGTRKTVLGLVGDTSVIDMEHVQGYDYVDKVLRV | -1.11
31 | HMGSKDLPFSTFMSEIDKGNITSVDIRGNEIQGTFANGTKFRTYSPNYPNLVEKLNGKGVSITAGPV | 0.409
32 | HMGSKKITIYVSGEVKNPGIVTLNSDQRLASAVEKLGGVTENADMNNINLAMKLEDEMHYIIPKKGEK | -0.0389
33 | HMGSKQVSVPDVRNLDYERASQQLREAGFVVGDVLRIRDDRAPAGTVIAQSPAAPALVPENARVSLLVSSG | 0.124
34 | HMGSLAVVPSLTGKTLQEAQSKAADYGLALEIEGYVASTAVDYGRIVSQSPDAGFSVKSGSSVKVSVSAG | -0.0619
35 | HMGSLGRAIRSRREKMKVGLEELAAKTGLSESHISDIEEGRGFAPVGDILKIARALTIDPGELLK | 0.49
36 | HMGSLGSLLKSVRNQRGLSRQQMAQSLNIGVRAIEQIEEGERKPDLELLNRYARGLMDPSVT | -0.166
37 | HMGSLKEKIVLLEKLYQQNPSEEIKLLLINTYQLNHQYIQARKLFFTLTPEQKEKLPLASEFLIFL | -1.04
38 | HMGSLNDQVMKYIDALPSAFNKRELDFLIERGVKEFALNGEYLEKAIINEYKLTADTYHRER | 0.0903
39 | HMGSLQPLLLAAIDALQTHIRSGLPFRVEERLAELDQFRTELQNGSVPPQRGVNRLWAFYEDEFRL | -1.06
40 | HMGSLRSALDGIPGIGEQYQKRLLAQFGSVKAMRSASVEDFEAVRGIGRAKAQALYDALHAG | -0.221
41 | HMGSLVVVPNLVGQNYDEVKLSTKYSDFEIVQKNTEYSEAPAGQIIKQDPEAGTKVKKHSTINVTVSK | -0.167
42 | HMGSQELIQLGERIRQKRKDSHLTQETFAEKAGISVNTVSRIEGGQAAMSIEIFAKLVEILDADANELLG | -1.39
43 | HMGSRAEAKEFLQTMLADGRQLATDMEEARQAHDIADRTLRRARKELNVQVYRDGNAWYWELPTPIK | -0.585
44 | HMGSREVPFSDFISKVESGSVLEVVLRGRQVEGLTDANERFQTQIPNYPALFEILERNQVRTRVEPT | -0.0642
45 | HMGSTATVIASRLNMRASASTTGALLTKIPNGATVTVLGTTGAWSHIRYGSYTGYVMSQYLRING | -3.1
46 | HMGSTVRIVVPAADIPAYKDIQPSDLEYREVPKDEISEDAVTDPQEVINKYSTSPLYAGWPINKNIIET | -0.0405

Row | Sequence | soluble fraction (log2)
47 | HMGSYANAWQLAEHAAKDMLGEVIYLLDGKEVHAGILETMSAESIKTASAENVDGKVVIRLVSK | -0.15
48 | HMGSYIGEAKAKEIALSHAGVSASQATFVRSQFEYDDGRAVYDVDFWSGNKEYDYEIDAKSGTIVSYDFD | -0.736
49 | HMGSYVVQLGAFAIRANAEKLAREVDGSIATSGRFSLVRVGPFTSRGQAEQALAKLRARGYSDALIHSL | -2.39
50 | HMGTDFRPVFQYVDELVRAGEFTNLKGMIYFTDGRGIFPEKKPDYDAAFVFLDDGYDPPDVPVWAIKLVL | -0.0422
51 | HMGTGSSAERITMLNSILERQIQAMEIQGNPDAPIVNIQKIYTTLQRIVETAGLKDVDQFFMNPLQGQKEM | -0.134
52 | HMGTIRAPMPGTILKINVVDGDSVTKGDVLLILESMKMENSITSPKTGSVTSVYVSEGDPVQHGETLIDL | -0.196
53 | HMGTISKRINPSGTTVYRAVIRIRKNGYPNFTESRTFSKKSMAAEWVKRREAEIELNPDILFG | -2.57
54 | HMGTLSLLVQKLMAVGLEGAKASEIVERFDRERIERQINALPSRKIKSSRTGFLIRAIELDIPVE | -2.58
55 | HMGTPKMPLSLYLSMVENLRSLKRFALVNQQVKDGFVFFNDVAGIKRLQELLNYHNTGEKPSE | -2
56 | HMGTRIQAVMEDIQSRIAARTYLPGTRLPSVRAQAQAMQVSVSTVVEAYERLAAEGVIASRPGSGFYVAGP | -3.05
57 | HMGTRPAYAADAPNPQKRFIYHRIVDQLRNKATGAPISYRAIAAETGVSVQTVINIKNRMNQMLSEK | -1.27
58 | HMGTRPIQIASFSKEENAKRAVEALAKIGITAQPQKSGSATKAVWGVVANGDADLLAKIKAAGFADAYFL | 0.0154
59 | HMGTRTILGIDPGSRKTGFGIIRLDGSRTHYVSSGVIRIPDTALPERLKIIFASLNEIIQQFQPQEV | -0.339
60 | HMGTRYVEFVIPGTGNHEVRIVSSNGSRQNVEVAGTYPGGARLRTKVDNGVRRVSFYVDNRLVEEKQ | -0.26
61 | HMGTSFKITFYKDAFQVDDGPIRMLNDPANQKFVDEVSQGYAPKELIGQGGKAPEIDIIDKRSENAPT | 0.156
62 | HMGTVFTDIMTDIASGKFPNVFPDSLEAQIQKNVTMAPDKLSATLQYGDKSVILPTTKGKEAAEAAVKAA | 0.000803
63 | HMGTYTSALDGIKGLGKKRKMLLLNTYKSIDVLKSVPLTELSQLIPREVAEALLTKLNRVDD | -1.18
64 | HMGVDASVDSKLDLLSQVLDSDQVKEQLPEAVLEQLAQNLDRWRSLHEESELQDDDIAELNRLLGLFGLG | 0.111
65 | HMGVEKHLRITGTSTVSWKDAIVQAVAEASKTIDYLSNVKIIEQRARIDGKKLVEYFVDLDLSFVID | -0.23
66 | HMGVGITAPLAGNIFKIVVQPGDVVASGDVVLVLEAMKMETEIRAASGGTVSQVLVREGDAVDAGHTLITL | -2.85
67 | HMGVGVTAPLAGNIFKIVKQPGDVVASGDVVLILEAMKMETEIRAAAGGTVKQVLVREGDAVDAGHTLMTL | -1.38
68 | HMGVHSVVPDIKNKHYGEAKAILAANGLSIEISDSIYDRSVAPGTVVESWPKAGAIVKGDRAVFVTLTAF | -1.61
69 | HMGVMTGAEFVGNTVASVERNLIIDTLKHTMGNRTTAANILGISIRTLRNKLKQYQNEGFDIPE | -1.11
